Consider one molecule from CN116178545A (GUANGDONG FEIPENG PHARMACEUTICAL CO LTD, dated 2023).

The target of one test is T1, 重组人CD28蛋白 (human, UniProt P10747 19-152).
T1 construct: The words 携带hFc标签的 stand before the first protein of the list; also called Acrobiosystem Cat.CD8-H525a
Nature of the test: ELISA, protein coated at 1μg/ml.

The next test deals with T2, 重组人PD-L2蛋白 (human, UniProt Q9BQ51 20-219).
T2 construct: The words 携带hFc标签的 stand before the first protein of the list; also called Acrobiosystem Cat.PD2-H5251
T2 sequence (looked up): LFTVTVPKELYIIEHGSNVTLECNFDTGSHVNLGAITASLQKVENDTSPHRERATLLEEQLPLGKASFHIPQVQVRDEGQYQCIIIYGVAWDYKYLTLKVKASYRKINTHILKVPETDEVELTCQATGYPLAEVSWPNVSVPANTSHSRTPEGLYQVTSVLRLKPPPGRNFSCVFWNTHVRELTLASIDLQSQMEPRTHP
The experiment in a line: ELISA, protein coated at 1μg/ml.

Another test concerns the target T3, 重组人CD86蛋白 (human, UniProt P42081 26-247).
T3 construct: The words 携带hFc标签的 stand before the first protein of the list; also called Acrobiosystem Cat.CD6-H5257
T3 sequence (looked up): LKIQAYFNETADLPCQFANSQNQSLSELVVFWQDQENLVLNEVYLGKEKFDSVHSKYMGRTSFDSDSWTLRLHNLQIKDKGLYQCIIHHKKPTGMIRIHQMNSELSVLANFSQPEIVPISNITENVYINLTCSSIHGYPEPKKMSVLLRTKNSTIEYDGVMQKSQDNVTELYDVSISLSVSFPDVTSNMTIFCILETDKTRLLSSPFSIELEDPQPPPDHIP
The experiment in a line: ELISA, protein coated at 1μg/ml.

In a further test the target is T4, 重组人CTLA-4蛋白 (human, UniProt P16410 37-162).
T4 construct: The words 携带hFc标签的 stand before the first protein of the list; also called Acrobiosystem Cat.CT4-H5255
T4 sequence (P16410 37-162): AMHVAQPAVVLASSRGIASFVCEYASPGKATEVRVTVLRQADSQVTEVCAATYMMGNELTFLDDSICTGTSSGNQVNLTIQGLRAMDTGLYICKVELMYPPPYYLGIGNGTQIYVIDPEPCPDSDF
Nature of the test: ELISA, protein coated at 1μg/ml.

The next test has as its target T5, 重组人CD276蛋白 (human, UniProt Q5ZPR3-2 29-245).
T5 construct: The words 携带hFc标签的 stand before the first protein of the list; also called B7-H3; Acrobiosystem Cat.B73-H5253
T5 sequence (looked up): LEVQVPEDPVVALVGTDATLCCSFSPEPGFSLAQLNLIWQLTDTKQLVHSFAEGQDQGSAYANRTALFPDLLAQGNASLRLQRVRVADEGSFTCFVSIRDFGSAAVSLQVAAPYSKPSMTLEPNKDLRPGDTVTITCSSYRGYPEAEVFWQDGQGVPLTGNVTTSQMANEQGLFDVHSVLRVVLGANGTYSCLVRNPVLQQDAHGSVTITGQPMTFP
The experiment in a line: ELISA, protein coated at 1μg/ml.

A further test addresses T6, 重组人PD-1蛋白(自产) (human, UniProt Q15116 25-167).
T6 construct: The words 携带hFc标签的 stand before the first protein of the list
The experiment in a line: ELISA, protein coated at 1μg/ml.

The target of a further test is T7, 重组人ICOS蛋白 (human, UniProt Q9Y6W8 21-140).
T7 construct: The words 携带hFc标签的 stand before the first protein of the list; also called Acrobiosystem Cat.ICS-H5250
T7 sequence (looked up): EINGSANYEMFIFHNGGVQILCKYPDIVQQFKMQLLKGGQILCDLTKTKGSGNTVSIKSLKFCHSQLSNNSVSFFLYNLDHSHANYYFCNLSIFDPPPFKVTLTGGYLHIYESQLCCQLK
Nature of the test: ELISA, protein coated at 1μg/ml.

For a further test, the target named is T8, 重组人ICOSLG蛋白 (human, UniProt O75144 19-258).
T8 construct: The words 携带hFc标签的 stand before the first protein of the list; also called Acrobiosystem Cat.B72-H5254
T8 sequence (looked up): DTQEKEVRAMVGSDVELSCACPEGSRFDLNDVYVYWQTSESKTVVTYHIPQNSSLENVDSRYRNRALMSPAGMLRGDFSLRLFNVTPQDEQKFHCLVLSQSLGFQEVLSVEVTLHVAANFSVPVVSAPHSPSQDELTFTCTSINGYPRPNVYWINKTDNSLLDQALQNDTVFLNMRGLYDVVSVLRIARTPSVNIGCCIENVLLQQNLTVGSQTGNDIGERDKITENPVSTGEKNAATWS
Nature of the test: ELISA, protein coated at 1μg/ml.

The target of another test is T9, hPD-L1-his (human, UniProt Q9NZQ7 19-238).
T9 construct: extracellular domain; also called 携带his标签的人PD-L1胞外区重组蛋白; not shown: his tag
T9 sequence (Q9NZQ7 19-238): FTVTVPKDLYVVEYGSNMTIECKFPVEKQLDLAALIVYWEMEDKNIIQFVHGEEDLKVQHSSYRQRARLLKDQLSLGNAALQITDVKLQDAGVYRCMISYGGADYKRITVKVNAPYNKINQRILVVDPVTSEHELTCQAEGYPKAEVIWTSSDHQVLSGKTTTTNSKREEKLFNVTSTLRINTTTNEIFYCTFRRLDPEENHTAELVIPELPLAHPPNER
Nature of the test: BLI (ForteBIO), hPD-L1-his on anti-Penta-HIS sensor.

The target of a further test is T10, 小鼠PD-L1 (on CHO cells) (mouse, UniProt Q9EP73 19-290).
T10 construct: whole, on cells; also called CHO-mPD-L1稳定细胞株; 稳定表达全长小鼠PD-L1的CHO
T10 sequence (Q9EP73 19-290): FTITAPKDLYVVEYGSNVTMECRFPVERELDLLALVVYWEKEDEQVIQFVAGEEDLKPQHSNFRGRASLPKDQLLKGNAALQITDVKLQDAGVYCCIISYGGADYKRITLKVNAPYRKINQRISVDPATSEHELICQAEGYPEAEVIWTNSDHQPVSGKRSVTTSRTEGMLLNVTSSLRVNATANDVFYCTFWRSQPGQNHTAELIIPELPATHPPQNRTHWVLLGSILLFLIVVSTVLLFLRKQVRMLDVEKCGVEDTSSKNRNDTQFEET
The experiment in a line: flow cytometry on CHO-mPD-L1 cells.

Another test deals with T11, 人PD-L1 (on cells) (human, UniProt Q9NZQ7 19-290).
T11 construct: whole, on cells; One molecule for human PD-L1 on CHO-hPD-L1, on IFNγ-stimulated A375 and on CHO-hPD-L1-OKT3 cells; the cell is named under assay; also called CHO-hPD-L1稳定细胞株; 稳定表达人PD-L1的CHO
T11 sequence (Q9NZQ7 19-290): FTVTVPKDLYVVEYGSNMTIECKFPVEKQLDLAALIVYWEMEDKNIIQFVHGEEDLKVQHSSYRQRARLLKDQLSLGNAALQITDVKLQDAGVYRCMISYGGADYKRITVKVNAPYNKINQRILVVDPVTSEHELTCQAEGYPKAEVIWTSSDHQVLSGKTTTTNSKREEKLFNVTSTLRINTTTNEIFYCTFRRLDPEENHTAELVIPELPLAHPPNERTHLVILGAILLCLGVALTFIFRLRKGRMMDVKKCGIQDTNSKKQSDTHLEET
Nature of the test: flow cytometry on IFNγ-stimulated A375 cells.

T6 sequence (Q15116 25-167): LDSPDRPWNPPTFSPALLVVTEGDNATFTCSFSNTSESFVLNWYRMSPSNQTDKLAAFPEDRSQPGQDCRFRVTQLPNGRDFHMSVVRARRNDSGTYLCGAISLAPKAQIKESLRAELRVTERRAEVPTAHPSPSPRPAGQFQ

B1: 176L5H2 (antibody, V domains shown)
VH: QVQLQESGPGLVKPSETLSLTCAVYGDSITSGYWNWIRKPPGKKLEYIGYISYTGSTYQNPSLKSRITMSRDTSKNQYYLKLSSVTAADTAVYYCARSRAWIRTYFDYWGQGTLVTVSS
VL: EIVLTQSPSSLSASVGDRVTITCSVSSSISSSNLHWYQQKPGKAPKPWIYGTSNLASGVPSRFSGSGSGTDYTLTISSLQPEDFATYYCQQWSSYPLTFGQGTKLEIKR
notes: Whole humanized mAb expressed in 293 cells; detected with anti-human IgG; also called 抗人PD-L1人源化抗体176L5H2
As to B1, the binding result in the test with 重组人CD28蛋白, with 重组人PD-L2蛋白, in the test with 重组人CD86蛋白, with 重组人CTLA-4蛋白, with 重组人CD276蛋白 and in the test with 重组人PD-1蛋白(自产) was “no binding (tested: 10μg/ml)” throughout. Moreover, the binding result is reported as “no binding (tested: 10μg/ml)” in the test with 重组人ICOS蛋白, “no binding (tested: 10μg/ml)” in the test with 重组人ICOSLG蛋白 and “no binding (tested: 20μg/ml)” with 小鼠PD-L1 (on CHO cells). This molecule returned a Kd in the test with hPD-L1-his of 0.109 nM. Besides, the EC50 in the test with 人PD-L1 (on cells) was about 0.2 nM.
